Source: the nanobody polyreactivity screen of Harvey et al. (2022)

assay: yeast display, Sf9 membrane polyspecificity reagent, FACS + sequencing; frameworks hold sequencing errors
In short: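 Polyreactivity labels are assigned by the sorting gate from which each nanobody was recovered. The gates were low and high (top ~1%), set on anti-HA fluorescence for expression and streptavidin fluorescence for reagent binding. Before sorting, galactose-induced (36–48 hours) yeast display cells were stained for 1 hour at 4 °C with 10% biotinylated, detergent-solubilized Sf9 membrane reagent.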

Row | Sequence | polyreactivity (PSR sort gate)
1 | QVQLVESGGGLVQAGGSLRLSCAASGRTFSFYAMVWYRQAPGKERELVAGIDWDDGSTSYADSVKGRFTISRDNAKNTVYLQMNSLKQEDTAVCYCAADIGYDVYNDYDYWGQGTQVTVSS | low polyreactivity
2 | QVQLVESGGGLVQAGGSLRLSCAASGRTFSFYDMGWYRQAPGKERELVAAINSGSSTYYADSVKGRFTISRDNANNTVYLQMNSLKPEDTEVYYCAAEPYFWWQNEYWGQGTQVTVSS | high polyreactivity
3 | QVQLVESGGGLVQAGGSLRLSCAASGRTFSGNTMGWYRQAPGKERELVAAISSGGSRTYYADSVKGRFTISRDNAKNTVYLLMNSLKPEDTAVYYCATVSTYYHYRRYDYWGQGTQVTVSS | high polyreactivity
4 | QVQLVESGGGLVQAGGSLRLSCAASGRTFSGYAMGWYRQAPGKEREFVAAITSSGGSTYYADSVKGRFTISRDNAKNTVYLQMNSLKPEDTAVYYCAARIRHFSVGYYYWGQGTQVTVSS | high polyreactivity
5 | QVQLVESGGGLVQAGGSLRLSCAASGRTFSGYAMGWYRQAPGKERELVAAINYSDGSTYYADSVKGRFTISRDNAKNTVYLQMNSLKPEDTAVYYCNKVYRYVRYAYDYWGQGTQVTVSS | high polyreactivity
6 | QVQLVESGGGLVQAGGSLRLSCAASGRTFSGYAMGWYRQAPGKERELVAGINWSGDSTYYADSVKGRFTISRDNAKNTVYLQMNSLKPEDTAVYYCAASRSGTYDWGQGTQVTVSS | high polyreactivity
7 | QVQLVESGGGLVQAGGSLRLSCAASGRTFSHYAMGWSRQAPGKERELVAASNTRTGTTYYADSVKGRFTISRDNAKNTVNLQMNSLKPEDTAVYYCNAVPYYSYQGWILVGDYDYWGQGTQVTVSS | low polyreactivity
8 | QVQLVESGGGLVQAGGSLRLSCAASGRTFSINAMGWYRQAPGKERELVASISSRGTRTNYADSVKGRFTISRDNAKNTVYLQMNSLKPEDTAVYYCAADRYYPYYSAWREYEYWGQGTQVTVSS | high polyreactivity
9 | QVQLVESGGGLVQAGGSLRLSCAASGRTFSIYAMGWYRQAPGKERELVASITGRGTRTYYADSVKGRFTISRDNAKNTVYLQMNSLKPEDTAVYYCNARGKVQSSYDDDYWGQGTQVTVSS | high polyreactivity
10 | QVQLVESGGGLVQAGGSLRLSCAASGRTFSKNAMGWYRQAPGKERELVADISRRGGRTYYADSVNGRFTISRDNAKNTVYLQMNSLKPEDTAVYYCAARTYRQPYYILDYYWGQGTQVTVSS | high polyreactivity
11 | QVQLVESGGGLVQAGGSLRLSCAASGRTFSKYAMGWYRQAPGKERELVAAITRSGSSTYYADSVKGRFTISRDNAKNTVYLQMNSLKPEDTAVYYCAADRYVRSSGSASDYGYWGQGTQVTVSS | low polyreactivity
12 | QVQLVESGGGLVQAGGSLRLSCAASGRTFSLYAMGWYRQAPGKERELVARIRSSTRTTYADSVKGRFTISRDNAKNTVYLQMNSLKPEDTAVYYCAADSGYRYYTKSVGYDYWGQGTQVTVSS | high polyreactivity
13 | QVQLVESGGGLVQAGGSLRLSCAASGRTFSPYAMGWYRQAPVKERELVAAITSGGRTNYADSVKGRFTISRDNAKNTVYLQMNSLKPEDTAVYYCAARSGRYRWTRFDYWGQGTQVTVSS | low polyreactivity
14 | QVQLVESGGGLVQAGGSLRLSCAASGRTFSPYMGWYRQAPGKERELVAAISKSGGRTYYADSVKGRFTISRDNAKNTVYLQMNSLKPEDTAVYYCANTGNNYYYALYGYWGQGTQVTVSS | low polyreactivity
15 | QVQLVESGGGLVQAGGSLRLSCAASGRTFSQYAMGWYRPAPGKERELVAAITRSGSRTYYADSVKGRFTISRDNAKNTVYLQMNSLKPEDTAVYYCAADGHAGYPIDEYYYWGQGTQVTVSS | high polyreactivity
16 | QVQLVESGGGLVQAGGSLRLSCAASGRTFSQYAMGWYRQAPGKERELVAAITKNGGRTYYADSVKGRFTISRDNAKNTVYLQMNSLKPEDTAVYYCNARGGRYAGKLDYWGQGTQVTVSS | high polyreactivity
17 | QVQLVESGGGLVQAGGSLRLSCAASGRTFSRNAMGWYRQAPGKERELVAAITSSGGSTYYADSVKGRFTISRDNAKNTVYLQMNSLKPEDTAVYYCNADATYRRGGGDYWGQGTQVTVSS | high polyreactivity
18 | QVQLVESGGGLVQAGGSLRLSCAASGRTFSRNAMGWYRQAPGKERELVATISSSGVRTYYADSVKGRFTISRDNAKNTVYLQMNSLKPEDTAVYYCAAAWRYYSAASGYDYWGQGTQVTVSS | low polyreactivity
19 | QVQLVESGGGLVQAGGSLRLSCAASGRTFSRYAIGWYRQAPGKERELVASITSRGGSTYYADSVKGRFTISRDNAKNTVYLQMNSLKPEDTAVYYCNVKPTYSPRYWEDYWGQGTQVTVSS | high polyreactivity
20 | QVQLVESGGGLVQAGGSLRLSCAASGRTFSRYAMGWYRQAPGKEREFVAAITWSSGGTYYADSVKGRFTISRDNAKNTVYLQMNSLKPEDTAVYYCNYLRSRYYQDYNYWGQGTQVTVSS | high polyreactivity
21 | QVQLVESGGGLVQAGGSLRLSCAASGRTFSRYAMGWYRQAPGKERELVAAISRSGGITYYADSVKGRFTISRDNAKNTVYLQMNSLKPEDTAVYYCAAYVRGWGGDDYWGQGTQVTVSS | high polyreactivity

Row | Sequence | polyreactivity (PSR sort gate)
22 | QVQLVESGGGLVQAGGSLRLSCAASGRTFSSYAMGWYRQAPGKERELVAAIRVSGGITYYADSVKGRFTISRDNAKNTVYLQMNSLKPEDTAVYYCNAGVDFIGGSYLKYDYWGQGTKVTVSS | low polyreactivity
23 | QVQLVESGGGLVQAGGSLRLSCAASGRTFSTNAMGWYSQAPGKERELVAAISARGGSTYYADSVKGRFTISRDNAKNTVYLLLTSLKPEDTAVDYCARRPGRYSYAFDYWGQGTQVTVSS | high polyreactivity
24 | QVQLVESGGGLVQAGGSLRLSCAASGRTFSTYAMGWCRQAPGKERELVAAISRRGGSTYYADSVKGRFTISRDNAKYTVYLQMNSLKPEDTAVYYGAADSYDSDVNEYDYWGQGTQVTVSS | high polyreactivity
25 | QVQLVESGGGLVQAGGSLRLSCAASGRTFSTYAMGWYRQAPGKERELVARITSSGGSTYYAHSVKGRFTISRDIAKNSVYLQMNCLKPEDTAVYYCAAYAHYAQRYYYWGQGTQVTVSS | high polyreactivity
26 | QVQLVESGGGLVQAGGSLRLSCAASGRTFSTYTMGWYRPAPGNERELVAAINWSGTSTYYADSVKGRFTISRDTAKNTVYLQMNSLKPEDTAFYYCNAGKWAYRWGYELNYWGQGTQVTVSS | high polyreactivity
27 | QVQLVESGGGLVQAGGSLRLSCAASGRTFSVNAMGWYRQAPGKERELVAAIAWDGGSTYYADSVKGRFTISRDNAKNTVYLQMNSLKPEDTAVYYCNKDLYYAYDYWGQGTQVTVSS | low polyreactivity
28 | QVQLVESGGGLVQAGGSLRLSCAASGRTFSVNAMGWYRQAPGKERELVAAISWDGGSTYYADSVKGRFTISRDNAKNTVYLQMNSLKPEDTAVYYCNQDLYYAYDYWGQGTQVTVSS | low polyreactivity
29 | QVQLVESGGGLVQAGGSLRLSCAASGRTFSVNAMGWYRQAPGKERELVAAITSGGSTYYADSVKGRFTISRDNAKNTVYLQMNSLKPEDTAVYYCNADLEPYDYWGQGTQVTVSS | low polyreactivity
30 | QVQLVESGGGLVQAGGSLRLSCAASGRTFSVNAMGWYRQAPGKERELVAAITSGGSTYYADSVKGRFTISRDNAKNTVYLQMNSLKPEDTAVYYCNAVGRLRRSRLRMDYWGQGTQVTVSS | high polyreactivity
31 | QVQLVESGGGLVQAGGSLRLSCAASGRTFSWYAMGWYRQAPGKEREFVAAITSGGSTYYADSVKGRFTISRDNAMNTVYLQMNSLKPEDTAVYYCAAYGYWGQGTQVTVSS | high polyreactivity
32 | QVQLVESGGGLVQAGGSLRLSCAASGRTFSYNAMGWYRQAPGKERELVAAITGRGGSTYYADSVKGRFTISRDNAKHTVYLQMNSLKPEDTAVYYCNAPPGTFQWQGHSDYWGQGTQVTVSS | low polyreactivity
33 | QVQLVESGGGLVQAGGSLRLSCAASGRTFSYNAMGWYRQAPGKERELVAAITSSGGGTSYADSVKGRFTISRDNAKNTVYLQMNSLKPEDTAVYYCNRVLPHPDGYGVGARGYWGQGTQVSVSS | high polyreactivity
34 | QVQLVESGGGLVQAGGSLRLSCAASGRTFSYNAMGWYRQAPGTERELVAAISGGGSTDYADSVKGRFTISRDNAKNTVYLQMNSLKPEDTAVYYCAAGWYVYTFFEFYVFDGDYWGQGTQVTVSS | low polyreactivity
35 | QVQLVESGGGLVQAGGSLRLSCAASGRTFSYSAMGWYRQAPGKERELVAAISSGGSTNYADSVKGRFTISRDNAKNTVYLQMNSLKPEDTAVYYCATSSIWGSGRVRWVTYYYWGQGTQVTVSS | low polyreactivity
36 | QVQLVESGGGLVQAGGSLRLSCAASGRTFSYSAMGWYRQAPGKERELVAAITGSGGRTYYADSVKGRFTISRDNAKNTVYLQMNSLKPEDTAVYYCAARYLYEGQLRPIRYYHYGYWGQGTQVTVSS | high polyreactivity
37 | QVQLVESGGGLVQAGGSLRLSCAASGRTFSYYAMGCYRQAPGKERELVASISSGGSTKYADSVKGRFTISRDNAKNTVYLQMNSLKPEDTAVYYCAVTYWYGRVLYGYWGQGTQVTVSS | high polyreactivity
38 | QVQLVESGGGLVQAGGSLRLSCAASGRTFSYYAMGWYRQAPGKERELVAAIDDNGGTTYADSVKGRFTISRDNATNTVYLQINSLKPEDTAVYYCAKRVSYFWALRRGYWGQGTKVTVSS | high polyreactivity
39 | QVQLVESGGGLVQAGGSLRLSCAASGRTFSYYAMGWYRQAPGKERELVAAIRRSSGTTYYADSVKGRFTISSDNAKNTVYLQMNSLKPEDTAVYYCNARSRRASIKRDYWGQGTQVTLSS | high polyreactivity
40 | QVQLVESGGGLVQAGGSLRLSCAASGRTFSYYAMGWYRQAPGKERELVAAISSGDSTYYADSVKGRFTFSRDNAMNTVYLQMNSLKPEDTAVYYCASYPSLYYTKYDYWGQGTQVTVSS | high polyreactivity
41 | QVQLVESGGGLVQAGGSLRLSCAASGRTFSYYAMGWYRQAPGKERELVAAISSGGSTYYADSVKGRFTISRDNAKNTVYLQMNRLKPEDTAVYYCAKEYKQALGHVSFDYWGQGTQVTVSS | low polyreactivity
